Laboratory results as given in patent US20220143024A1, “METHODS OF USING IMIPRIDONES” (Board of Regents, The University of Texas System, priority 2019, published 2022).

Assays:
Assay in all cases: BioID-MS +ONC201
MTIF2 (human) = MTIF2 (human) (UniProt P46199)
OXCT1 (human) = OXCT1 (human) (UniProt P55809)
SHMT2 (human) = SHMT2 (human) (UniProt P34897)
CLIC4 (human) = CLIC4 (human) (UniProt Q9Y696)
IBA57 (human) = IBA57 (human) (UniProt Q5T440)
NADK2 (human) = NADK2 (human) (UniProt Q4G0N4)
ACAA2 (human) = ACAA2 (human) (UniProt P42765)
NDUFS2 (human) = NDUFS2 (human) (UniProt O75306)
NDUFS7 (human) = NDUFS7 (human) (UniProt O75251)
COX5A (human) = COX5A (human) (UniProt P20674)
PDK3 (human) = PDK3 (human) (UniProt Q15120)
ATPAF2 (human) = ATPAF2 (human) (UniProt Q8N5M1)
ATPAF2 (human), sequence (Q8N5M1 41-289 limits assumed): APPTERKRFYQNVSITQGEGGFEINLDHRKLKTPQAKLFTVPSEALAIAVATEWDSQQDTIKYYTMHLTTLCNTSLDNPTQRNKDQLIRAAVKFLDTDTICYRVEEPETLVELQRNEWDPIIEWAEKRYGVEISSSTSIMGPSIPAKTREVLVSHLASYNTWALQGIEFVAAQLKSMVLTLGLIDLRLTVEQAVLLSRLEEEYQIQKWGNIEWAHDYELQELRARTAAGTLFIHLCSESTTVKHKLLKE

SDHAF3 (human) = SDHAF3 (human) (UniProt Q9NRP4)
ECHS1 (human) = ECHS1 (human) (UniProt P30084)
IARS2 (human) = IARS2 (human) (UniProt Q9NSE4)
DHTKD1 (human) = DHTKD1 (human) (UniProt Q96HY7)
DHTKD1 (human), sequence (Q96HY7 whole entry): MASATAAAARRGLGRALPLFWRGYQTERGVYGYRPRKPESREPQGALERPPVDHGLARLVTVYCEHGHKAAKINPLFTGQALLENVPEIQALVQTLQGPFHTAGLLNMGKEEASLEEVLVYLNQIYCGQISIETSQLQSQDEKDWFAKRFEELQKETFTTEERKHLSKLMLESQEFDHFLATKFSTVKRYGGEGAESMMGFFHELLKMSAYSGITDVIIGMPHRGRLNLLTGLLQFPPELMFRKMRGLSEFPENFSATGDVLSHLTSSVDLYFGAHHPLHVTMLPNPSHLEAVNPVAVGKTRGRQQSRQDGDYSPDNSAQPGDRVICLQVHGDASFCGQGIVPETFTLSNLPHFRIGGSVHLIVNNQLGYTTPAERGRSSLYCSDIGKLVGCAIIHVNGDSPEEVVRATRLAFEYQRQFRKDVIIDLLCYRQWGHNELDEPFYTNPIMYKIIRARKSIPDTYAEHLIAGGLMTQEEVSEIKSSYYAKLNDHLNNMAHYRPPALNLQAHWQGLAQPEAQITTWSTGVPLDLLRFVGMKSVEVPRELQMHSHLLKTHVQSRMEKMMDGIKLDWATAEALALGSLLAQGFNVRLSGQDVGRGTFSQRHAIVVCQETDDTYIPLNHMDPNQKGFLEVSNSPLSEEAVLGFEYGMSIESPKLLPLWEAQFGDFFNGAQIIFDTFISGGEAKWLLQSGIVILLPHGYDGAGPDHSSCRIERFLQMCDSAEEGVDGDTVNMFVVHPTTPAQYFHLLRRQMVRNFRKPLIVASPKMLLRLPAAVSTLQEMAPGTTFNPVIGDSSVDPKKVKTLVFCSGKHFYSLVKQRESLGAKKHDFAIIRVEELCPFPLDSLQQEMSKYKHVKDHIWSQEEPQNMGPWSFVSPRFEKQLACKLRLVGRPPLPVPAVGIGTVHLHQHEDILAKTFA

NIPSNAP2 (human) = NIPSNAP2 (human) (UniProt O75323)
MRPL44 (human) = MRPL44 (human) (UniProt Q9H9J2)
FOXRED1 (human) = FOXRED1 (human) (UniProt Q96CU9)
NDUFAF4 (human) = NDUFAF4 (human) (UniProt Q9P032)
XPNPEP3 (human) = XPNPEP3 (human) (UniProt Q9NQH7)
XPNPEP3 (human), sequence (Q9NQH7 32-507 limits assumed): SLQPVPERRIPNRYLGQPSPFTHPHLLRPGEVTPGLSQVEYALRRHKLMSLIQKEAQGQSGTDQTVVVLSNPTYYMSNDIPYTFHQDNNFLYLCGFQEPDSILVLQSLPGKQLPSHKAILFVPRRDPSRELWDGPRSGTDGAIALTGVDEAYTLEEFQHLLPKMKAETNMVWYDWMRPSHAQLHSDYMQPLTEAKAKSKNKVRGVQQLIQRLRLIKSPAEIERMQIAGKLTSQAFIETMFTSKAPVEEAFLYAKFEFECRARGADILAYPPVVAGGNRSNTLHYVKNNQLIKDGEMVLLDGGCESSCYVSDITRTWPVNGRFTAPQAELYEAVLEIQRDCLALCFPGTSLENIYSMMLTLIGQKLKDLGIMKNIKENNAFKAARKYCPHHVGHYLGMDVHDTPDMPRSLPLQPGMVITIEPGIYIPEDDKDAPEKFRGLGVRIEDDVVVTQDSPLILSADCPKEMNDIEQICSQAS

MTPAP (human) = MTPAP (human) (UniProt Q9NVV4)
MTPAP (human), sequence (Q9NVV4 38-582 limits assumed): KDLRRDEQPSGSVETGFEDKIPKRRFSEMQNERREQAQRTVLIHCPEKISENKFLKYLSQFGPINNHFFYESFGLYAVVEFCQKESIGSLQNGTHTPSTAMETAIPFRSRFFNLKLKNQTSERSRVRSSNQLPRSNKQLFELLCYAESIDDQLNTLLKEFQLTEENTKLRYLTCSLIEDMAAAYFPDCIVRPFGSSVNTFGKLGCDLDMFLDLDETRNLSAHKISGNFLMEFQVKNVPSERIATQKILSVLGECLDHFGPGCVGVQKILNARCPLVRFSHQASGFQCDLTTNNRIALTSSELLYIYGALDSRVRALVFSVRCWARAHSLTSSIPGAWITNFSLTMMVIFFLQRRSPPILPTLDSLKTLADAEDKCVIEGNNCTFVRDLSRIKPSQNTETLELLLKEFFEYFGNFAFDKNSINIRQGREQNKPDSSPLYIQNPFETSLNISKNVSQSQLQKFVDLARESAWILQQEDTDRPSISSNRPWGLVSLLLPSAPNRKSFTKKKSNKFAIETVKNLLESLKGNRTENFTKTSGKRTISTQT

VWA8 (human) = VWA8 (human) (UniProt A3KMH1)
VWA8 (human), sequence (A3KMH1 29-1905 limits assumed): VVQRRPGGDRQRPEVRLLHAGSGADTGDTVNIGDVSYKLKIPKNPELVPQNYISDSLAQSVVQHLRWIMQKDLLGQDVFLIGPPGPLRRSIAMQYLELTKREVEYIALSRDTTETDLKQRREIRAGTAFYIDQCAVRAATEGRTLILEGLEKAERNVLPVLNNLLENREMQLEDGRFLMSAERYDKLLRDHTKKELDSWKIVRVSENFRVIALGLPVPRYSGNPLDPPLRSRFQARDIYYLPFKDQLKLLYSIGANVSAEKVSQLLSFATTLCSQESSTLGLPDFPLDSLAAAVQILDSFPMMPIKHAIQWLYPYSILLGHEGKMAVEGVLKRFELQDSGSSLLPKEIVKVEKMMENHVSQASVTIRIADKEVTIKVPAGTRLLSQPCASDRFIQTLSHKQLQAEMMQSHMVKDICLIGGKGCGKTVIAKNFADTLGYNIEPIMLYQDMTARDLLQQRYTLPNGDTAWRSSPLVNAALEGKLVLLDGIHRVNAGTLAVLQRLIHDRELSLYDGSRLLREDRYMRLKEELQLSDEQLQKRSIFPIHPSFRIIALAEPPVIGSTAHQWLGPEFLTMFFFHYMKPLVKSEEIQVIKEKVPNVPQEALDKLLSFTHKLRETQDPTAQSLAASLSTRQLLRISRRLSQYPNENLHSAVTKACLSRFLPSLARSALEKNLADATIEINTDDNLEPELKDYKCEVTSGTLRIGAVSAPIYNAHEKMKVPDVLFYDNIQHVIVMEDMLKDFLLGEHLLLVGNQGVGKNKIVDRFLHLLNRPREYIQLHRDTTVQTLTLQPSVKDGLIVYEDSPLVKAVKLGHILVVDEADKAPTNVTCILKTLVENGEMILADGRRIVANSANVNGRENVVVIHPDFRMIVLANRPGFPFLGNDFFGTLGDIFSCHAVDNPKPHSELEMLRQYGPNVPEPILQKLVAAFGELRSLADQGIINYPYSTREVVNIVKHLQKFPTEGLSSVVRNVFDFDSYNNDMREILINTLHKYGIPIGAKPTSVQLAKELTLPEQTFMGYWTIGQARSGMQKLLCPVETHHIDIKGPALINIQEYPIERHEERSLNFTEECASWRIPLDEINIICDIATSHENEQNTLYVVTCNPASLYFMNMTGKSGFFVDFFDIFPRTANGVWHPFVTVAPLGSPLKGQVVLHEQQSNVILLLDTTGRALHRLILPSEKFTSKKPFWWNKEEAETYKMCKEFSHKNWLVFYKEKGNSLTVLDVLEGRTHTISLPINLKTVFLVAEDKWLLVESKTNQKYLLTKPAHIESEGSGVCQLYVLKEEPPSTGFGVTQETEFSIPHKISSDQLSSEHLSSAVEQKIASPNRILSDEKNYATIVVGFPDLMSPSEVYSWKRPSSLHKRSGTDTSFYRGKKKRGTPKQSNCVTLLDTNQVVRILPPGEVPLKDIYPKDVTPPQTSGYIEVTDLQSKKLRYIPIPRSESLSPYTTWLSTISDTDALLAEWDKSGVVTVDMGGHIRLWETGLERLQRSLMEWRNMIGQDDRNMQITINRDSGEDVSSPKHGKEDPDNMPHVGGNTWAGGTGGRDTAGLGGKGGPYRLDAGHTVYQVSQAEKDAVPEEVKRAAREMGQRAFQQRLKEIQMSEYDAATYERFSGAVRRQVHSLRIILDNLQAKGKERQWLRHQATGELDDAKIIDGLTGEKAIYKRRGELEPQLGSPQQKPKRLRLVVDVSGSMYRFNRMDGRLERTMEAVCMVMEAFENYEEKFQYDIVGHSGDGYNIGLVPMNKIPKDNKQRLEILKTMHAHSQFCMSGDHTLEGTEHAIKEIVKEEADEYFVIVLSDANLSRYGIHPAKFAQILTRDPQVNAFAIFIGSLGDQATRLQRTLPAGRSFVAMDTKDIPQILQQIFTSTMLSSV

ZADH2 (human) = ZADH2 (human) (UniProt Q8N4Q0)
NDUFA7 (human) = NDUFA7 (human) (UniProt O95182)
PDIA3 (human) = PDIA3 (human) (UniProt P30101)
PDIA3 (human), sequence (P30101 25-505 limits assumed): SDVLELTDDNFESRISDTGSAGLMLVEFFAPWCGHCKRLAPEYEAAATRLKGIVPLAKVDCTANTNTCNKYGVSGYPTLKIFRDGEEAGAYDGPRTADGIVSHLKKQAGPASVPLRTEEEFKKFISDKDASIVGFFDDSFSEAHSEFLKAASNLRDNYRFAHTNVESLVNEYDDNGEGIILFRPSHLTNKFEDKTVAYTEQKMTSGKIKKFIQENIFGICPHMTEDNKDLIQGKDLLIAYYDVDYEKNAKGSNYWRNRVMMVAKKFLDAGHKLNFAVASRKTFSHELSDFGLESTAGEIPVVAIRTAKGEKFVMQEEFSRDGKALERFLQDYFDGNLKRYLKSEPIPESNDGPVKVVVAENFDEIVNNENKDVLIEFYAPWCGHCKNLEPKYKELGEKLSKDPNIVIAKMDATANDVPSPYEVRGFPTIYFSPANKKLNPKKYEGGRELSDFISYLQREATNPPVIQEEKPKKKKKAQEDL

NDUFA6 (human) = NDUFA6 (human) (UniProt P56556)
NDUFA6 (human), sequence (P56556 whole entry): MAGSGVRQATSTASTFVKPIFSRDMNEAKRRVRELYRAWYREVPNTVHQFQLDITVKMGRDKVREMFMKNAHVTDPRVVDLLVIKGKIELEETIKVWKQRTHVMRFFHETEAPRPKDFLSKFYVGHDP

ACN9 (human) = ACN9 (human) (UniProt Q9NRP4)
GTPBP10 (human) = GTPBP10 (human) (UniProt A4D1E9)
RPS15A (human) = RPS15A (human) (UniProt P62244)
NDUFS4 (human) = NDUFS4 (human) (UniProt O43181)
MICU2 (human) = MICU2 (human) (UniProt Q8IYU8)
NDUFAF5 (human) = NDUFAF5 (human) (UniProt Q5TEU4)
SUCLG2 (human) = SUCLG2 (human) (UniProt Q96I99)
COQ6 (human) = COQ6 (human) (UniProt Q9Y2Z9)
PCK2 (human) = PCK2 (human) (UniProt Q16822)
LYRM4 (human) = LYRM4 (human) (UniProt Q9HD34)
NDUFAF1 (human) = NDUFAF1 (human) (UniProt Q9Y375)
FASTKD2 (human) = FASTKD2 (human) (UniProt Q9NYY8)
ALDH2 (human) = ALDH2 (human) (UniProt P05091)
HSPE1 (human) = HSPE1 (human) (UniProt P61604)
GRPEL1 (human) = GRPEL1 (human) (UniProt Q9HAV7)
SPRYD4 (human) = SPRYD4 (human) (UniProt Q8WW59)
ETFB (human) = ETFB (human) (UniProt P38117)
MRPS36 (human) = MRPS36 (human) (UniProt P82909)
RG9MTD1 (human) = RG9MTD1 (human) (UniProt Q7L0Y3)
RG9MTD1 (human), sequence (Q7L0Y3 40-403 limits assumed): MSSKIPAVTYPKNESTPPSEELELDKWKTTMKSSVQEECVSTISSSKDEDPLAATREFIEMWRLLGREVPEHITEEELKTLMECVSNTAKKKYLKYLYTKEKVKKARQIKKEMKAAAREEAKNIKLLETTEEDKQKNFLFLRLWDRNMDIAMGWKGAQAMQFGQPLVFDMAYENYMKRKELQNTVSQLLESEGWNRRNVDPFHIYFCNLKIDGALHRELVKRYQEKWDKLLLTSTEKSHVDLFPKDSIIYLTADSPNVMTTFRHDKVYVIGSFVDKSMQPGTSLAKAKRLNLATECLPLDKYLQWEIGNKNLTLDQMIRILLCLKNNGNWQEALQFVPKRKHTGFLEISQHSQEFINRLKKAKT

GCDH (human) = GCDH (human) (UniProt Q92947)
NDUFAF3 (human) = NDUFAF3 (human) (UniProt Q9BU61)
IDI1 (human) = IDI1 (human) (UniProt Q13907)
MRPS26 (human) = MRPS26 (human) (UniProt Q9BYN8)
HADH (human) = HADH (human) (UniProt Q16836)

## FlagBirA-ClpP (WT) (from UniProt P06709 1-321; Q16740 57-277) (enzyme)
MTIF2 (human)
  Log2 Fold change (vs control): -5.55 log2
OXCT1 (human)
  Log2 Fold change (vs control): -2.58 log2
SHMT2 (human)
  Log2 Fold change (vs control): -0.51 log2
CLIC4 (human)
  Log2 Fold change (vs control): -0.49 log2
IBA57 (human)
  Log2 Fold change (vs control): -1.05 log2
NADK2 (human)
  Log2 Fold change (vs control): -4.24 log2
ACAA2 (human)
  Log2 Fold change (vs control): -0.88 log2
NDUFS2 (human)
  Log2 Fold change (vs control): -2.44 log2
NDUFS7 (human)
  Log2 Fold change (vs control): -1.81 log2
COX5A (human)
  Log2 Fold change (vs control): -2.87 log2
PDK3 (human)
  Log2 Fold change (vs control): -1.55 log2
ATPAF2 (human)
  Log2 Fold change (vs control): -2.58 log2
SDHAF3 (human)
  Log2 Fold change (vs control): -3.82 log2
ECHS1 (human)
  Log2 Fold change (vs control): -1.49 log2
IARS2 (human)
  Log2 Fold change (vs control): -2.38 log2
DHTKD1 (human)
  Log2 Fold change (vs control): -5.25 log2
NIPSNAP2 (human)
  Log2 Fold change (vs control): -0.31 log2
MRPL44 (human)
  Log2 Fold change (vs control): -5.04 log2
FOXRED1 (human)
  Log2 Fold change (vs control): -4.09 log2
NDUFAF4 (human)
  Log2 Fold change (vs control): -1.11 log2
XPNPEP3 (human)
  Log2 Fold change (vs control): -1.63 log2
MTPAP (human)
  Log2 Fold change (vs control): -0.1 log2
VWA8 (human)
  Log2 Fold change (vs control): 1.69 log2
ZADH2 (human)
  Log2 Fold change (vs control): -3.46 log2
NDUFA7 (human)
  Log2 Fold change (vs control): -3.81 log2
PDIA3 (human)
  Log2 Fold change (vs control): 0.03 log2
NDUFA6 (human)
  Log2 Fold change (vs control): -1.08 log2
ACN9 (human)
  Log2 Fold change (vs control): -5.46 log2
GTPBP10 (human)
  Log2 Fold change (vs control): -4.91 log2
RPS15A (human)
  Log2 Fold change (vs control): -0.69 log2
NDUFS4 (human)
  Log2 Fold change (vs control): -5.93 log2
MICU2 (human)
  Log2 Fold change (vs control): -4.31 log2
NDUFAF5 (human)
  Log2 Fold change (vs control): -0.68 log2
SUCLG2 (human)
  Log2 Fold change (vs control): -3.08 log2
COQ6 (human)
  Log2 Fold change (vs control): -3.7 log2
PCK2 (human)
  Log2 Fold change (vs control): -5.32 log2
LYRM4 (human)
  Log2 Fold change (vs control): 0 log2
NDUFAF1 (human)
  Log2 Fold change (vs control): -4.32 log2
FASTKD2 (human)
  Log2 Fold change (vs control): -0.62 log2
ALDH2 (human)
  Log2 Fold change (vs control): -0.17 log2
HSPE1 (human)
  Log2 Fold change (vs control): -0.36 log2
GRPEL1 (human)
  Log2 Fold change (vs control): -5.52 log2
SPRYD4 (human)
  Log2 Fold change (vs control): -1.26 log2
ETFB (human)
  Log2 Fold change (vs control): -1.35 log2
MRPS36 (human)
  Log2 Fold change (vs control): -2.58 log2
RG9MTD1 (human)
  Log2 Fold change (vs control): -1.3 log2
GCDH (human)
  Log2 Fold change (vs control): -0.17 log2
NDUFAF3 (human)
  Log2 Fold change (vs control): -0.73 log2
IDI1 (human)
  Log2 Fold change (vs control): -0.22 log2
MRPS26 (human)
  Log2 Fold change (vs control): -6.38 log2
HADH (human)
  Log2 Fold change (vs control): -1.3 log2
